The target in test [1] is T1, mouse FcγRIII (mouse, UniProt P08508 31-215).
T1 construct: bought; also called mFcgRIII; mFcgR III
T1 sequence (looked up): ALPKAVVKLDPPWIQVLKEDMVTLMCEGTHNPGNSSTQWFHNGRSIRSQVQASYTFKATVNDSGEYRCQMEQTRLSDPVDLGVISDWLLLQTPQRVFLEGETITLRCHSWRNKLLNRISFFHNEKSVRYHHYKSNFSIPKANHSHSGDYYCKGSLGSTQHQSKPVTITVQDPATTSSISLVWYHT
Nature of the test: SPR (Biacore T100/T200): FcγR injected over the antibody held by human FcRn immobilised on a CM4 chip (simultaneous binding), pH 7.4, 25 C.

The target in the next test is T2, human FcγRIIb (human, UniProt P31994 43-217, limits assumed).
T2 construct: also called hFcgRIIb; FcγIIB
T2 sequence: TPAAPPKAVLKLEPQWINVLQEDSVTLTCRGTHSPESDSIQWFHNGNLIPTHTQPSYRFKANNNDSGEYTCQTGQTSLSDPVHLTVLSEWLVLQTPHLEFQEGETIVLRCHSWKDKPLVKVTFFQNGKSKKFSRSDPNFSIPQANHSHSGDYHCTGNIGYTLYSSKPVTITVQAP
The test is described as above.

For test [2], the target named is T3, mouse FcγRIIb (mouse, UniProt P08101 30-207, limits assumed).
T3 construct: bought; also called mFcgRIIb; mFcgR IIb
T3 sequence (looked up): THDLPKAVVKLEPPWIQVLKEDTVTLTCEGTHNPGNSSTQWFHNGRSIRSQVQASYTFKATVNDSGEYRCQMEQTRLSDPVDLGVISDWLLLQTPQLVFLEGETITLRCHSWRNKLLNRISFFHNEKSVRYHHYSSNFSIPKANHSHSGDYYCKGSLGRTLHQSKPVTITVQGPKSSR
The description is as above.

The target of test [3] is T4, human FcγRIa (human, UniProt P12314 16-292, limits assumed).
T4 construct: also called hFcgRIa; hFcgRI
The test is described as above.

Test [4] has as its target T5, mouse FcγRI (mouse, UniProt P26151 25-297).
T5 construct: bought; also called mFcgRI; mFcgR 1
T5 sequence (looked up): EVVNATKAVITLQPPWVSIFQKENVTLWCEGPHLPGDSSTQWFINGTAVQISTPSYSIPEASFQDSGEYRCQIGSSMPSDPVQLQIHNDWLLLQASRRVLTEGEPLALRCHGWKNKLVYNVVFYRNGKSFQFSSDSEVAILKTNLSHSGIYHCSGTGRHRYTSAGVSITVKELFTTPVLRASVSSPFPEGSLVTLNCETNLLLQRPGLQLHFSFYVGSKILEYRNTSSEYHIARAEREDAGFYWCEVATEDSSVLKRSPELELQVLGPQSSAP
The test is described as above.

Test [5] concerns the target T6, mouse FcγRIV (mouse, UniProt A0A0B4J1G0 21-203).
T6 construct: bought; also called mFcgRIV; mFcgR IV; the vendor's purification tag not given
T6 sequence: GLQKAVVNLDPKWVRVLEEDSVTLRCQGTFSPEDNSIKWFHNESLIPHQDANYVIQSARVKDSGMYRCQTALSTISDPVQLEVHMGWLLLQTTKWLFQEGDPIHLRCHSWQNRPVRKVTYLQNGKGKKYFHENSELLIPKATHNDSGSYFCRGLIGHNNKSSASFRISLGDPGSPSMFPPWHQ
The description is as above.

In test [6] the target is T5, mouse FcγRI. In words: SPR (Biacore T100/T200): FcγR injected over the antibody held by mouse FcRn immobilised on a CM4 chip (simultaneous binding), pH 7.4, 25 C. For orientation: Surface plasmon resonance follows binding to a sensor surface in real time, without labels.
Test [7] deals with T3, mouse FcγRIIb. The description is as above.
Test [8] deals with T6, mouse FcγRIV. Described as above.
The target in test [9] is T1, mouse FcγRIII. The description is as above.
The target in a further test is T7, human FcγRIIIa(V) (human, UniProt P08637 17-208, limits assumed).
T7 construct: also called hFcgRIIIa(V); allotype V158
Nature of the test: SPR, antibody captured by Protein L, human FcγR as analyte, pH 7.4, 25 C.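 Also: biacore T100 or T200 with Protein L amine-coupled on a CM4 chip, FcγRs diluted in ACES saline with polysorbate 20, buffer-only injection as blank.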

In test [10] the target is T4, human FcγRIa. The description is as above.
A further test deals with T8, human FcγRIIa(H) (human, UniProt P12318 36-217).
T8 construct: also called hFcgRIIa(H); FcγRIIa type H
T8 sequence: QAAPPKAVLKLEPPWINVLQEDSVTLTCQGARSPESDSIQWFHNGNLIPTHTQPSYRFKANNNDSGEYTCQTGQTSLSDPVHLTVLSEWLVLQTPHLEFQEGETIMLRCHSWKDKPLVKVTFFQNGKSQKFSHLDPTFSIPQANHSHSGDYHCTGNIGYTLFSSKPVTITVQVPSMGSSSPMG
The test is described as above.

Another test deals with T9, human FcγRIIa(R) (human, UniProt P12318 36-217).
T9 construct: also called hFcgRIIa(R); FcγRIIa type R
T9 chain: T8 sequence with H133R
The description is as above.

Test [11] deals with T10, human FcRn (soluble human FcRn complexed with β2-microglobulin) (human, UniProt P61769 21-119, limits assumed).
T10 construct: also called hFcRn
Nature of the test: SPR, antibody captured by Protein L, human FcRn as analyte, pH 7.0, 25 C.

Test [12] has as its target T10, human FcRn (soluble human FcRn …). The description is as above. The source holds these as a separate data set.
In test [13] the target is T3, mouse FcγRIIb. Nature of the test: SPR, antibody captured by Protein L, mouse FcγR as analyte, pH 7.4, 25 C. Details: unit not given here.
In test [14] the target is T6, mouse FcγRIV. The description is as above. Details: unit not given here.
Test [15] addresses T1, mouse FcγRIII. The test is described as above. Details: unit not given here.

Residue numbers refer to the chain shown, from its start. Numbers in names are those of the source. Read-outs that look alike come from different tables or passages of the source.

What is called Kd is the concentration at which binding is half-saturated.

T10 sequence (chain, as listed by the source limits assumed, chain 1 of 2): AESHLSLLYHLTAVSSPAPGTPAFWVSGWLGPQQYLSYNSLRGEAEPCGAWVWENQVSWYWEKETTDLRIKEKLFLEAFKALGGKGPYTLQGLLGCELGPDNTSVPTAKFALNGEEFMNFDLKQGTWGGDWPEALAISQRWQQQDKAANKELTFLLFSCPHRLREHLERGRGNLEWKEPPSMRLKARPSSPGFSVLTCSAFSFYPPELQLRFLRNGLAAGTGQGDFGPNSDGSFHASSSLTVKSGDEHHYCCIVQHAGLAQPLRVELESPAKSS
T10 sequence (P61769 21-119 limits assumed, chain 2 of 2): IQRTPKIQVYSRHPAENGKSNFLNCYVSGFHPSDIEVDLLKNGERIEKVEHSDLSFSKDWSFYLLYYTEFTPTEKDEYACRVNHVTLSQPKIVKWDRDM
T4 sequence (P12314 16-292 limits assumed): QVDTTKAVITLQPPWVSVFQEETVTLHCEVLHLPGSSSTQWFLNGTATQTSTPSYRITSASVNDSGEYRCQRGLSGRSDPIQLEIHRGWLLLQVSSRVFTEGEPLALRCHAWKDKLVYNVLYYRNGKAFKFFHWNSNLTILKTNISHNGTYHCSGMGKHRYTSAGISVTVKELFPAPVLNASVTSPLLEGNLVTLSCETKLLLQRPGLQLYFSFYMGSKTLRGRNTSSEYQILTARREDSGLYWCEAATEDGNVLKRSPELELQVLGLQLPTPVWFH
T7 sequence (P08637 other isoform, or with tags, fused parts or gaps limits assumed): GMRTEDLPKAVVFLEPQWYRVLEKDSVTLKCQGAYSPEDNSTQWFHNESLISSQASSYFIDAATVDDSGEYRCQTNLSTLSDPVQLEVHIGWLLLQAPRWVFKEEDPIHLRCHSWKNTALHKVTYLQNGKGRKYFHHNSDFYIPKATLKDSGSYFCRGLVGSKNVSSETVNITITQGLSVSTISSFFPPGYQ

B1: Fv4-IgG1-F157 (VH3-IgG1-F157 and VL3-CK) (antibody)
heavy: QVQLQESGPGLVKPSETLSLTCAVSGHSISHDHAWSWVRQPPGEGLEWIGFISYSGITNYNPSLQGRVTISRDNSKNTLYLQMNSLRAEDTAVYYCARSLARTTAMDYWGEGTLVTVSSASTKGPSVFPLAPSSKSTSGGTAALGCLVKDYFPEPVTVSWNSGALTSGVHTFPAVLQSSGLYSLSSVVTVPSSSLGTQTYICNVNHKPSNTKVDKKVEPKSCDKTHTCPPCPAPELLGGPSVFLFPPKPKDTLMISRTAEVTCVVVDVSHEDPEVKFNWYVDGVEVHNAKTKPREEQYNSTYRVVSVLTPLHQDWLNGKEYKCKVSNKALPAPIEKTISKAKGQPREPQVYTLPPSRDELTKNQVSLTCLVKGFYPSDIAVEWESNGQPENNYKTTPPVLDSDGSFFLYSKLTVDKSRWQQGNVFSCSVLHEALHYHYTQKSLSLSP
light: DIQMTQSPSSLSASVGDSVTITCQASTDISSHLNWYQQKPGKAPELLIYYGSHLLSGVPSRFSGSGSGTDFTFTISSLEAEDAATYYCGQGNRLPYTFGQGTKVEIERTVAAPSVFIFPPSDEQLKSGTASVVCLLNNFYPREAKVQWKVDNALQSGNSQESVTEQDSKDSTYSLSSTLTLSKADYEKHKVYACEVTHQGLSSPVTKSFNRGEC
notes: copies: 2 + 2
Regarding B1, the binding result with mouse FcγRIII [1], with human FcγRIIb, in the test with mouse FcγRIIb [2], with human FcγRIa [3], with mouse FcγRI [4] and with mouse FcγRIV [5] was “binds” in each case.

B2: Fv4-IgG1-F20 (VH3-IgG1-F20 and VL3-CK) (antibody)
heavy: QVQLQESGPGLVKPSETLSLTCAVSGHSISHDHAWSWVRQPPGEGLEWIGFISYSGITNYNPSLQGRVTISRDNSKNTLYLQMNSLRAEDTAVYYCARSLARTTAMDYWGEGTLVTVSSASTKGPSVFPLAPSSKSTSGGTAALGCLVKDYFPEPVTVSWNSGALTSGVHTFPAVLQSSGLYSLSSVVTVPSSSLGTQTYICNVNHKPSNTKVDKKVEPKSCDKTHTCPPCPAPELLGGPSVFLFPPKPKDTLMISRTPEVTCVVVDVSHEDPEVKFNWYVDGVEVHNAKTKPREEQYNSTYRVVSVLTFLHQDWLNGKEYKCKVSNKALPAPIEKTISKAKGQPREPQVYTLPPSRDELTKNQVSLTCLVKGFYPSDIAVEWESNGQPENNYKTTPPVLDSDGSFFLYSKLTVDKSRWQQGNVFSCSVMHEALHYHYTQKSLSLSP
light: B1 light
notes: copies: 2 + 2
With B2, the binding result in the test with mouse FcγRI [6], in the test with mouse FcγRIIb [7], in the test with mouse FcγRIV [8] and with mouse FcγRIII [9] was “binds” in each case.

B3: antibody with VH3-IgG1-F1326 heavy chain and L(WT)-CK light chain (antibody)
heavy: B1 heavy with L236A, L237A, T252V, M254Y, A259P, T309Q, Q313A, L430M, Y438V
light: not shown
notes: L234A/L235A/T250V/M252Y/T307Q/V308P/Q311A/N434Y/Y436V; copies: 2 + 2
As for B3, the “BINDING AMOUNT (RU)” value came out at 61.6 RU with human FcγRIIIa(V), 265 RU with human FcγRIa [10], 11.4 RU with human FcγRIIa(H) and 11.7 RU in the test with human FcγRIIa(R). The Kd in test [11] and in [12] was 11 nM each time. In addition, the entries for the “binding amount” value with mouse FcγRIIb [13], in the test with mouse FcγRIV [14] and in the test with mouse FcγRIII [15] were 19.2, 85.6 and 532, respectively.

These data come from US20200199241A1 (Chugai, published 2020).
